The nature of data set [1]: histology, lateral and third ventricles. To be noted: glycan lost; control: wild-type littermates.
Data set [2] can be described thus: maximum speed, NOR test phase. To be noted: glycan lost; control: wild-type littermates.
A further data set can be described thus: open-field test. The conditions noted are these: glycan lost; control: wild-type littermates.
A short description of data set [3]: P509/514-CRMP2 antibody western blot, brain lysate. The conditions noted are these: glycan lost; control: wild-type mice. A general note: In western blotting, separated proteins are transferred to a membrane and probed.
Data set [4] can be described thus: distance travelled, NOR test phase. The conditions noted are these: glycan lost; control: wild-type littermates.
A short description of data set [5]: histology, four points along cortex. The conditions noted are these: glycan lost; control: wild-type littermates.
Data set [6] can be described thus: spontaneous alternation, enclosed plus maze. To be noted: glycan lost; control: wild-type littermates.
The nature of data set [7]: total CRMP2 western blot, brain lysate. To be noted: glycan lost; control: wild-type mice.
Data set [8] can be described thus: 3F4 (P509/514/518/522) antibody western blot, brain lysate. The conditions noted are these: glycan lost; control: wild-type mice.

Consider CRMP2: Crmp2S517A, for which the “other: brain ventricular volume, other: volume” value in data set [1] is “no change, 4.160 ± 1.252 vs 3.592 ± 1.155”. In data set [2], the “other: locomotion during NOR test phase, other: speed” value was “decreases, 0.124 ± 0.017 vs 0.145 ± 0.027”. Also, the “other: anxiety and locomotor activity” value in “open-field test” was “no change”. The “other: CRMP2 phosphorylation at GSK3β sites” value in data set [3] and in data set [8] was “no change” each time. Also, in [4], the “other: locomotion during NOR test phase, other: distance” value was “decreases, 9.4 ± 2.0 vs 12.8 ± 3.4”. The “other: cortical thickness, other: thickness” value in data set [5] was “no change, 1127 ± 93.24 vs 1197 ± 175.4”. For the same substance, the “other: spatial working memory” value in data set [6] is on record as “no change”. Besides, in data set [7], the expression_or_secretion entry is “no change”.

The values above are taken from publication PMC6893399.
